Kd data for 21 molecules are collected here from US20210395394A1.

Sequences and labels used below:
B1: Mutation 1-18 (antibody, mouse IgG2b, kappa, V domains shown)
VH: QVQLQQPGAELVRPGASVKLSCKASGTSFTNYWMNWVKQRPGQGLEWIGMIHPSDSETRINQKFKDKATLTVDKSSSTAYMQLSSLTAEDSAVYYCARSGDFYTSYFDYWGQGTTLTVSS
VL: DIQLTQSPASLSASVGETVTITCRGTGNIHNYLAWYQQKQGKSPQLLVYNAKTIADGVPSRFSGSGSGTQYSLKINSLQPEDFGSYYCQSFWSTYTFGGGTKLEIKR
B2: Mutation 1-19 (antibody, mouse IgG2b, kappa, V domains shown)
VH: QVQLQQPGAELVRPGASVKLSCKASGYSFTNYWMNWVKQRPGQGLEWIGMIHPSDSETRLNQKFKDKATLTVDKSSSTAYMQLSSLTAEDSAVYYCARSGDFYTYYFDYWGQGTTLTVSS
VL: DIQLTQSPASLSASVGETVTITCRGSGNIHNYLAWYQQKQGKSPQLLVYNAKTLADGVPSRFSGSGSGTQYSLKINSLQPEDFGSYYCQYFWSTYTFGGGTKLEIKR
B3: Mutation 1-27 (antibody, mouse IgG2b, kappa, V domains shown)
VH: QVQLQQPGAELVRPGASVKLSCKASGYSFTNYWMNWVKQRPGQGLEWIGMIHPSESETRINQKFKDKATLTVDKSSSTAYMQLSSLTAEDSAVYYCAKSGEFYTSYFDYWGQGTTLTVSS
VL: DIQLTQSPASLSASVGETVTITCRGTGNVHNYLAWYQQKQGKSPQLLVYNARTLADGVPSRFSGSGSGTQYSLKINSLQPEDFGSYYCQSFWSTYTFGGGTKLEIKR
B4: Mutation 1-22 (antibody, mouse IgG2b, kappa, V domains shown)
VH: QVQLQQPGAELVRPGASVKLSCKASGSSFTNYWMNWVKQRPGQGLEWIGMIHPSESETRLNQKFKDKATLTVDKSSSTAYMQLSSLTAEDSAVYYCARSGEFYTYYFDYWGQGTTLTVSS
VL: DIQLTQSPASLSASVGETVTITCRGTGNLHNYLAWYQQKQGKSPQLLVYNARTLADGVPSRFSGSGSGTQYSLKINSLQPEDFGSYYCQTFWSTYTFGGGTKLEIKR
B5: Mutation 1-23 (antibody, mouse IgG2b, kappa, V domains shown)
VH: QVQLQQPGAELVRPGASVKLSCKASGYSFTNYWMNWVKQRPGQGLEWIGMIHPSESETRVNQKFKDKATLTVDKSSSTAYMQLSSLTAEDSAVYYCARSGEFYTTYFDYWGQGTTLTVSS
VL: DIQLTQSPASLSASVGETVTITCRGSGNLHNYLAWYQQKQGKSPQLLVYNARTVADGVPSRFSGSGSGTQYSLKINSLQPEDFGSYYCQSFWSTYTFGGGTKLEIKR
B6: Mutation 1-37 (antibody, mouse IgG2b, kappa, V domains shown)
VH: QVQLQQPGAELVRPGASVKLSCKASGSSFTNYWMNWVKQRPGQGLEWIGMIHPSDSETRLNQKFKDKATLTVDKSSSTAYMQLSSLTAEDSAVYYCAKSGDFYTYYFDYWGQGTTLTVSS
VL: DIQLTQSPASLSASVGETVTITCRGTGNLHNYLAWYQQKQGKSPQLLVYNAKTIADGVPSRFSGSGSGTQYSLKINSLQPEDFGSYYCQYFWSTYTFGGGTKLEIKR
B7: Mutation 1-31 (antibody, mouse IgG2b, kappa, V domains shown)
VH: QVQLQQPGAELVRPGASVKLSCKASGYSFTNYWMNWVKQRPGQGLEWIGMIHPSDSETRLNQKFKDKATLTVDKSSSTAYMQLSSLTAEDSAVYYCARSGDFYTYYFDYWGQGTTLTVSS
VL: DIQLTQSPASLSASVGETVTITCRGSGNIHNYLAWYQQKQGKSPQLLVYNAKTVADGVPSRFSGSGSGTQYSLKINSLQPEDFGSYYCQTFWSTYTFGGGTKLEIKR
B8: Mutation 1-38 (antibody, mouse IgG2b, kappa, V domains shown)
VH: QVQLQQPGAELVRPGASVKLSCKASGYSFTNYWMNWVKQRPGQGLEWIGMIHPSDSETRVNQKFKDKATLTVDKSSSTAYMQLSSLTAEDSAVYYCAKSGDFYTTYFDYWGQGTTLTVSS
VL: DIQLTQSPASLSASVGETVTITCRGSGNVHNYLAWYQQKQGKSPQLLVYNAKTLADGVPSRFSGSGSGTQYSLKINSLQPEDFGSYYCQTFWSTYTFGGGTKLEIKR
B9: Mutation 1-32 (antibody, mouse IgG2b, kappa, V domains shown)
VH: QVQLQQPGAELVRPGASVKLSCKASGTSFTNYWMNWVKQRPGQGLEWIGMIHPSDSETRVNQKFKDKATLTVDKSSSTAYMQLSSLTAEDSAVYYCARSGDFYTTYFDYWGQGTTLTVSS
VL: DIQLTQSPASLSASVGETVTITCRGTGNVHNYLAWYQQKQGKSPQLLVYNAKTIADGVPSRFSGSGSGTQYSLKINSLQPEDFGSYYCQSFWSTYTFGGGTKLEIKR
B10: Mutation 1-21 (antibody, mouse IgG2b, kappa, V domains shown)
VH: QVQLQQPGAELVRPGASVKLSCKASGTSFTNYWMNWVKQRPGQGLEWIGMIHPSESETRINQKFKDKATLTVDKSSSTAYMQLSSLTAEDSAVYYCARSGEFYTSYFDYWGQGTTLTVSS
VL: DIQLTQSPASLSASVGETVTITCRGSGNVHNYLAWYQQKQGKSPQLLVYNARTIADGVPSRFSGSGSGTQYSLKINSLQPEDFGSYYCQYFWSTYTFGGGTKLEIKR
B11: Mutation 1-30 (antibody, mouse IgG2b, kappa, V domains shown)
VH: QVQLQQPGAELVRPGASVKLSCKASGSSFTNYWMNWVKQRPGQGLEWIGMIHPSDSETRINQKFKDKATLTVDKSSSTAYMQLSSLTAEDSAVYYCARSGDFYTSYFDYWGQGTTLTVSS
VL: DIQLTQSPASLSASVGETVTITCRGTGNIHNYLAWYQQKQGKSPQLLVYNAKTLADGVPSRFSGSGSGTQYSLKINSLQPEDFGSYYCQYFWSTYTFGGGTKLEIKR
B12: Mutation 1-36 (antibody, mouse IgG2b, kappa, V domains shown)
VH: QVQLQQPGAELVRPGASVKLSCKASGTSFTNYWMNWVKQRPGQGLEWIGMIHPSDSETRINQKFKDKATLTVDKSSSTAYMQLSSLTAEDSAVYYCAKSGDFYTSYFDYWGQGTTLTVSS
VL: DIQLTQSPASLSASVGETVTITCRGSGNLHNYLAWYQQKQGKSPQLLVYNAKTVADGVPSRFSGSGSGTQYSLKINSLQPEDFGSYYCQSFWSTYTFGGGTKLEIKR
B13: Mutation 1-35 (antibody, mouse IgG2b, kappa, V domains shown)
VH: QVQLQQPGAELVRPGASVKLSCKASGSSFTNYWMNWVKQRPGQGLEWIGMIHPSESETRVNQKFKDKATLTVDKSSSTAYMQLSSLTAEDSAVYYCARSGEFYTTYFDYWGQGTTLTVSS
VL: DIQLTQSPASLSASVGETVTITCRGSGNLHNYLAWYQQKQGKSPQLLVYNARTIADGVPSRFSGSGSGTQYSLKINSLQPEDFGSYYCQYFWSTYTFGGGTKLEIKR
B14: Mutation 1-28 (antibody, mouse IgG2b, kappa, V domains shown)
VH: QVQLQQPGAELVRPGASVKLSCKASGTSFTNYWMNWVKQRPGQGLEWIGMIHPSESETRLNQKFKDKATLTVDKSSSTAYMQLSSLTAEDSAVYYCAKSGEFYTYYFDYWGQGTTLTVSS
VL: DIQLTQSPASLSASVGETVTITCRGSGNIHNYLAWYQQKQGKSPQLLVYNARTIADGVPSRFSGSGSGTQYSLKINSLQPEDFGSYYCQYFWSTYTFGGGTKLEIKR
B15: Mutation 1-24 (antibody, mouse IgG2b, kappa, V domains shown)
VH: QVQLQQPGAELVRPGASVKLSCKASGSSFTNYWMNWVKQRPGQGLEWIGMIHPSDSETRINQKFKDKATLTVDKSSSTAYMQLSSLTAEDSAVYYCAKSGDFYTSYFDYWGQGTTLTVSS
VL: DIQLTQSPASLSASVGETVTITCRGSGNLHNYLAWYQQKQGKSPQLLVYNAKTLADGVPSRFSGSGSGTQYSLKINSLQPEDFGSYYCQTFWSTYTFGGGTKLEIKR
B16: Mutation 1-34 (antibody, mouse IgG2b, kappa, V domains shown)
VH: QVQLQQPGAELVRPGASVKLSCKASGYSFTNYWMNWVKQRPGQGLEWIGMIHPSESETRLNQKFKDKATLTVDKSSSTAYMQLSSLTAEDSAVYYCARSGEFYTYYFDYWGQGTTLTVSS
VL: DIQLTQSPASLSASVGETVTITCRGTGNLHNYLAWYQQKQGKSPQLLVYNARTVADGVPSRFSGSGSGTQYSLKINSLQPEDFGSYYCQSFWSTYTFGGGTKLEIKR
B17: Mutation 1-20 (antibody, mouse IgG2b, kappa, V domains shown)
VH: QVQLQQPGAELVRPGASVKLSCKASGSSFTNYWMNWVKQRPGQGLEWIGMIHPSDSETRVNQKFKDKATLTVDKSSSTAYMQLSSLTAEDSAVYYCARSGDFYTTYFDYWGQGTTLTVSS
VL: DIQLTQSPASLSASVGETVTITCRGTGNVHNYLAWYQQKQGKSPQLLVYNAKTVADGVPSRFSGSGSGTQYSLKINSLQPEDFGSYYCQTFWSTYTFGGGTKLEIKR
B18: Mutation 1-26 (antibody, mouse IgG2b, kappa, V domains shown)
VH: QVQLQQPGAELVRPGASVKLSCKASGYSFTNYWMNWVKQRPGQGLEWIGMIHPSDSETRVNQKFKDKATLTVDKSSSTAYMQLSSLTAEDSAVYYCAKSGDFYTTYFDYWGQGTTLTVSS
VL: DIQLTQSPASLSASVGETVTITCRGSGNVHNYLAWYQQKQGKSPQLLVYNAKTVADGVPSRFSGSGSGTQYSLKINSLQPEDFGSYYCQYFWSTYTFGGGTKLEIKR
B19: Mutation 1-25 (antibody, mouse IgG2b, kappa, V domains shown)
VH: QVQLQQPGAELVRPGASVKLSCKASGTSFTNYWMNWVKQRPGQGLEWIGMIHPSDSETRLNQKFKDKATLTVDKSSSTAYMQLSSLTAEDSAVYYCAKSGDFYTYYFDYWGQGTTLTVSS
VL: DIQLTQSPASLSASVGETVTITCRGTGNLHNYLAWYQQKQGKSPQLLVYNAKTIADGVPSRFSGSGSGTQYSLKINSLQPEDFGSYYCQSFWSTYTFGGGTKLEIKR
B20: Mutation 1-29 (antibody, mouse IgG2b, kappa, V domains shown)
VH: QVQLQQPGAELVRPGASVKLSCKASGSSFTNYWMNWVKQRPGQGLEWIGMIHPSESETRVNQKFKDKATLTVDKSSSTAYMQLSSLTAEDSAVYYCAKSGEFYTTYFDYWGQGTTLTVSS
VL: DIQLTQSPASLSASVGETVTITCRGTGNIHNYLAWYQQKQGKSPQLLVYNARTVADGVPSRFSGSGSGTQYSLKINSLQPEDFGSYYCQTFWSTYTFGGGTKLEIKR
B21: Mutation 1-33 (antibody, mouse IgG2b, kappa, V domains shown)
VH: QVQLQQPGAELVRPGASVKLSCKASGTSFTNYWMNWVKQRPGQGLEWIGMIHPSESETRINQKFKDKATLTVDKSSSTAYMQLSSLTAEDSAVYYCARSGEFYTSYFDYWGQGTTLTVSS
VL: DIQLTQSPASLSASVGETVTITCRGSGNVHNYLAWYQQKQGKSPQLLVYNARTLADGVPSRFSGSGSGTQYSLKINSLQPEDFGSYYCQTFWSTYTFGGGTKLEIKR

For the assay, the target named is Pan-species-specific antigen Plasmodium Lactate DeHydrogenase (Pan-PLDH) protein. Kind of assay: indirect ELISA at four coating concentrations, KD calculated from half-maximal OD.
On to B1, for which the Kd (as a rule, a measure of binding affinity in units of concentration) is 0.567 nM.
Turning to B2, the Kd was 0.329 nM.
On to B3, for which the Kd is 0.427 nM.
As to B4, the Kd is 0.378 nM.
Take B5: the Kd was 0.319 nM.
On to B6, for which the Kd was 0.52 nM.
On to B7, for which the Kd was 0.514 nM.
For B8, the Kd is 0.613 nM.
As for B9, the Kd was 0.329 nM.
Turning to B10, the dissociation constant Kd is 0.655 nM.
Under B11 stands 0.198 nM; under B12, 0.518 nM; under B13, 0.424 nM.
Turning to B14, the Kd was 0.759 nM.
Consider B15, for which the Kd was 0.402 nM.
As for B16, the Kd was 0.565 nM.
Consider B17, for which the Kd is 0.204 nM.
With B18, the Kd was 0.374 nM.
For B19, the Kd was 0.493 nM.
Turning to B20, the Kd is 0.411 nM.
Under B21 stands 0.372 nM.
